Assay results taken from PMC3005583.

Target: lysozyme (Lys) (UniProt P00698 19-147)
Test: competition

B1: Anti-Lys aptamer / Competitor 3 probe (mixed)
DNA 1: ATCAGGGCTAAAGAGTGCAGAGTTACTTAG
DNA 2: ATCAGGGCACTCTTTAGCCCTGAT
modifications: 5' and 3' pyrene via (CH2)6 on strand 2
Question: Does B1 bind?
Answer: Result: binds
